Assay results reported in paper PMC3172200 (PLoS Biology, 2011).
Where no end group is shown, it is not given here. [ ]: non-standard residue; d: D form.

Molecular target: T1, recombinant wild type SEB with N-terminal His6-tag (S. aureus COL, UniProt P01552 28-266)
T1 sequence: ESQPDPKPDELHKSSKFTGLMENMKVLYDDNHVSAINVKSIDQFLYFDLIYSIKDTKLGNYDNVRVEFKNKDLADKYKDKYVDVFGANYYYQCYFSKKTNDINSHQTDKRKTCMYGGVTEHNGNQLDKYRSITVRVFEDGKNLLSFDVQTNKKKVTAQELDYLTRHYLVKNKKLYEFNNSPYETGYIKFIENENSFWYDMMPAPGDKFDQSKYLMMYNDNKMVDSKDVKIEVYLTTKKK
Assay: western blot of SEB bound to transfected cells
Conditions: both partners purified

Binder | binding result
[dA]HVKGKHLCP[dA] (source: synthetic peptide) [p1TA (HVKGKHLCP; CD28 116-124), form for biological assays] | binds
ASPMLVAYDA (D-Ala at both termini, source: synthetic peptide) [p2TA (SPMLVAYD; CD28 8-15), form for biological assays] | binds
